Data as given in patent US20240287457A1, “COMPOSITIONS AND CELL CULTURE MEDIA FOR INCREASING NEUTROPHIL LIFESPAN” (THE CHILDREN'S MEDICAL CENTER CORPORATION, priority 2021, published 2024).

Experiments:
murine neutrophils [1] = assay: In vitro neutrophil death / survival of cultured murine neutrophils; type: cell-based, mouse; settings: for healthy neutrophils remaining: mouse, G-CSF alone
caspases = settings: pan-caspase inhibitor; cited from earlier work
[2] = test system: neutrophils purified from wild-type (WT) mice; assay: fMLP-induced neutrophil polarization (ruffling); type: cell-based, mouse; settings: fMLP 1 μM, FIG. 10
Protocol: FIG. 10A is a series of images showing chemoattractant-induced neutrophil ruffling. Neutrophils (2×10^5) purified from wild-type (WT) mice were plated on LABTEK chamber slides and cultured in RPMI-1640 in the presence or absence of Rac1 inhibitor for 60 minutes. Cells were then uniformly stimulated with N-formyl-met-leu-phe (fMLP, 1 μM). Images were taken 5 minutes after the fMLP stimulation (400×). FIG. 10B is a bar graph showing the percentage of cells that ruffled or extended pseudopods, calculated from images captured 5 minutes after stimulus was added. At least 200 cells were assessed for each sample in each experiment. Data are represented as mean±SD of three experiments. **p<0.001 versus untreated neutrophils.

neutrophils = settings: 20 hours at 37° C. in anoxic culture medium with 3 mM glucose and 32 mg/mL DMOG; from about 1 day; cited from earlier work
cells = settings: even at extremely high concentrations; cited from earlier work
murine neutrophils [3] = assay: In vitro phagocytosis assay, murine neutrophils; type: cell-based, mouse; settings: after one day of culture
Protocol: In vitro phagocytosis assay: […] pHrodo Red E. coli BioParticles or Zymosan A S. cerevisiae BioParticles (INVITROGEN) were reconstituted in phosphate-buffered saline (PBS) and opsonized with 10% serum at 37° C. for 30 minutes. Neutrophils were incubated with serum-opsonized bioparticles at a ratio of 1:10 (neutrophils:bioparticles) at 37° C. for 0.5 hours. APC-Ly6G (BIOLEGEND, 1A8, 0.2 μg/mL) or APC-CD16 (BIOLEGEND, 51.1, 0.2 μg/mL) antibody was added to the sample to label mouse or human neutrophil membranes. The labeling was achieved by incubating the samples at room temperature for 3 minutes. The number of internalized particles was counted under a spinning disk confocal microscope ([…] VOX). Phagocytosis efficiency was expressed as the percentage of neutrophils that engulfed at least one bioparticle. Phagocytosis index was expressed as the average number of internalized particles per cell. At least 200 cells were counted from random fields per coverslip for each group.

transfused neutrophils [4] = assay: In vivo recruitment of transfused neutrophils in a mouse peritonitis model; settings: 1-day-old neutrophils
Protocol: In vivo recruitment of transfused neutrophils in a mouse peritonitis model: Freshly isolated CD45.1^+ or CLON-G-treated (1 day) GFP^+ bone marrow neutrophils were mixed (1:1, a total of 5×10^6/mouse) and injected intravenously into neutropenic recipient mice challenged with TG for 1 hour. At the indicated time points after cell injection, peritoneal cells were harvested by peritoneal cavity lavage with 5 mL of ice-cold PBS/15 mM EDTA, flushed back and forth three times. The relative amount of transfused freshly isolated CD45.1^+ and CLON-G-treated (1 day) GFP^+ neutrophils were analyzed by flow cytometry using a BD FACSCANTO II flow cytometer as described above.

transfused neutrophils [5] = assay: In vivo recruitment of transfused neutrophils in bacterial pneumonia; set-up: species or system mouse; settings: lungs
Protocol: In vivo recruitment of transfused neutrophils in bacterial pneumonia: Freshly isolated or CLON-G-treated bone marrow neutrophils were labeled with carboxyfluorescein diacetate succinimidyl ester (CFSE, 5 μM) or seminaphthorhodafluor-1 acetate (SNARF-1, 5 μM) at 37° C. for 10 minutes; labeled cells were mixed (1:1, a total of 5×10^6/mouse) and transfused via the tail vein into the same neutropenic recipient mice challenged with 5×10^3 cfu E. coli for 4 hours. Whole lungs were homogenized 3 hours after neutrophil transfusion. The number of adoptively transferred neutrophils recruited to the lungs was analyzed using a FACSCANTO II flow cytometer and […] software. Relative recruitments of CLON-G-treated and freshly isolated neutrophils were calculated as the ratio of the indicated populations.

E. coli = assay: Neutropenia-related E. coli-induced pneumonia model (GTX); type: in vivo, mouse
[6] = test system: neutrophils in the granulocyte apheresis concentrates; assay: Survival and function of neutrophils from human granulocyte apheresis concentrates; type: cell-based; settings: cultured for only 1 day, FIG. 6K
Protocol: Accordingly, the donors were stimulated in the evening and granulocyte collection was carried out the next morning. Neutrophil harvesting was accomplished through the process of apheresis in which red blood cells (RBCs) and plasma were returned to the donor. To collect enough cells for GTX, standard continuous flow apheresis was performed for 1 to 1.5 hours to process 3.5 to 5 liters of blood. Citrate was used as the anticoagulant during collection and calcium gluconate was added to the return line to counteract the citrate-induced hypocalcemic symptoms in the donor. […] The purity was >97% as determined by both Wright-Giemsa staining and flow cytometry analysis with CD15 and CD16 antibodies. […] No contamination of hematopoietic progenitor cells (HPCs) was detected. […] The total initial cell number was counted using a hemocytometer before culture or treatment. At each indicated time point, the total cell number was counted again. […] Apoptotic cells were detected by Annexin V-fluorescein isothiocyanate (FITC) and propidium iodide (PI) staining using an Annexin V Detection Kit (BD BIOSCIENCES) following the manufacturer's protocol. Flow cytometry was performed using a FACSCANTO II flow cytometer and analyzed using […] software (BD BIOSCIENCES). […] Chemotaxis velocity and directionality were analyzed; see e.g., Jia et al. 2007, supra. […]

[7] = test system: transfused human neutrophils; assay: Survival and function of transfused human neutrophils in vivo in NSG mice
human neutrophils = assay: In vitro neutrophil death / survival of cultured human neutrophils; settings: G-CSF alone

For `C[C@H](NC(=O)C(=O)Nc1ccccc1C(C)(C)C)C(=O)N[C@@H](CC(=O)O)C(=O)COc1c(F)c(F)cc(F)c1F` [Emricasan, N-[2-(1,1-dimethylethyl)phenyl]-2-oxoglycyl-N-[(1S)-1-(carboxymethyl)-2-oxo-3-(2,3,5,6-tetrafluorophenoxy)propyl]-L-Alaninamide, reference compound], the “lifespan of cultured neutrophils” value (murine neutrophils [1]; in combination with NAC, Hsp70, DFO, G-CSF, and optionally a RIPK1 inhibitor, FIG. 23, murine bone marrow neutrophils) is given as “prolonged the lifespan” and the activity in vitro (caspases) is given as “sub- to nanomolar”.

With `CCN(CC)CCCC(C)Nc1nc(C)cc(Nc2ccc3nc(C)cc(N)c3c2)n1` (centres unmarked) [NSC23766] the fMLP-induced neutrophil polarization [2] was “effectively inhibited”.

In the case of `COC(=O)CNC(=O)C(=O)OC` [DMOG, dimethyloxalylglycine], the “neutrophil half-life in vitro” value (neutrophils) is listed as 48 h.

For `CC(C)C(NC(=O)c1ccc2ccccc2n1)C(=O)NC(CC(=O)O)C(=O)COc1c(F)cccc1F` (stereo not drawn) [Q-VD-Oph, Quinoline-Val-Asp-Difluorophenoxymethylketone], the toxicity to cells (cells) is listed as “not toxic”.

B1: G-CSF: granulocyte colony-stimulating factor (AMGEN, NEUPOGEN), PI3K/Akt pathway stimulator (protein, listed as Homo sapiens)
chain: MTPLGPASSLPQSFLLKCLEQVRKIQGDGAALQEKLCATYKLCHPEELVLLGHSLGIPWAPLSSCPSQALQLAGCLSQLHSGLFLYQGLLQALEGISPELGPTLDTLQLDVADFATTIWQQMEELGMAPALQPTQGAMPAFASAFQRRAGGVLVASHLQSFLEVSYRVLRHLAQP
With B1 the healthy neutrophils remaining (murine neutrophils [1]; after 1 day of treatment) was about 40%, the healthy neutrophils remaining (murine neutrophils [1]; after 3 days of treatment) was about 15% and the phagocytosis efficiency (murine neutrophils [3]) was “lower”. For the same molecule, the “recruitment efficiency compared to fresh neutrophils” value (transfused neutrophils [4]) was “reduced recruitment efficiency”, the “recruitment efficiency compared to fresh neutrophils” value (transfused neutrophils [5]) was “reduced recruitment efficiency” and the “inflammatory cytokine concentrations (TNF-α, IL-6)” value (E. coli; inflamed lungs, ELISA) was “unable to reduce inflammatory cytokine concentrations”. The edema formation (E. coli; lung, transfusion of treated neutrophils) was “failed to produce the same protective effect”, the “bacteria-killing capacity in neutropenic recipient mice” value (E. coli; transfusion of treated neutrophils, 5×10^3 cfu E. coli) was “ineffective” and the BALF protein concentrations (E. coli; transfusion of treated neutrophils, compared with fresh neutrophils) was “remained high”. The “reduction in relative bacterial killing capability” value [6] was “more than 50%”, the “recruitment of transfused human neutrophils to the inflamed peritoneal cavity” value ([7]; 1 and 2 hours post transfusion) was “lower” and the “human neutrophils left in the peritoneal cavity / cell death” value ([7]; injected into inflamed peritoneal cavity, each time point) was “faster rates of cell death”. For the same molecule, the “phagocytosis efficiency lower than that of fresh human neutrophils” value ([7]; pHrodo-E. coli) was “about 50%”, the healthy neutrophils remaining (human neutrophils; after 1 day of treatment) was “about 55%” and the healthy neutrophils remaining (human neutrophils; after 3 days of treatment) was about 15%.
